PMC11055835, “Small animal PET imaging with the ^68Ga-labeled pH (low) insertion peptide-like peptide YJL-4 in a triple-negative breast cancer mouse model” (EJNMMI Radiopharmacy and Chemistry, 2024)
Read-outs that look alike come from different tables or passages of the source. Peptide text beside a SMILES is read from it. * marks the point of attachment. X1 = O=C(O)CN1CCN(CC(=O)O)CC(Cc2ccc(NC(=S)*)cc2)N(CC(=O)O)CC1; NOTA = O=C(O)CN1CCN(CC(=O)O)CCN(CC(=O)*)CC1; Ahx = NCCCCCC(=O)O

Assays:
[1] = Serum stability in human serum; format: in vitro ADME
Procedure: (§1) Two hundred microliters of each ^68Ga-labeled peptide (18.5 MBq) was mixed with 1.0 mL of fresh human serum (or mouse serum) and incubated at 37 °C, and the radiochemical purity was detected at 30, 60, 120, and 240 min after mixing.

[2] = Serum stability in mouse serum; format: in vitro ADME
Procedure: as §1

Serum protein binding = format: in vitro ADME, mouse
Procedure: The resulting mixture was vortexed for 1 min and centrifuged (13,000 rpm) for 5 min. The supernatant was transferred to a 1.7 ml Eppendorf tube and then further centrifuged at 13,000 rpm for 2 min. The supernatant and sediment were collected separately, and the radioactivity was measured with a gamma counter to determine the serum protein binding of the radiotracer.

In vivo biodistribution = test: In vivo biodistribution; parameters: species or system BALB/c nude mice; details: female, BALB/c nude, mouse, iv, 1.85 MBq/200 uL, total radioactivity
Excerpt: Twenty-four four- to five-week-old female specific pathogen-free (SPF) BALB/c nude mice (Hangzhou Ziyuan Experimental Animal Technology Co., Ltd., China, license number: […] The animal studies were approved by the ethics committee of Qingdao University, and the management of the animals adhered to the animal ethics standards. Eighteen tumor-bearing nude mice were selected for in vivo biodistribution experiments when the tumor diameter reached 0.8–1.0 cm. Mice were randomly divided into two groups: a YJL-4 group and a control group with 9 mice per group; each group had three time points. […] The mice were humanely sacrificed 1 h, 2 h, or 4 h after injection. The brain, heart, lungs, liver, kidneys, stomach, small intestine, blood, muscles, bones, and tumor were collected and weighed, and the radioactivity was measured. The biodistribution results are expressed as the percent of the injected dose per gram of tissue (% ID/g).

[3] = test system: MDA-MB-231 tumor-bearing nude mice; test: Small animal PET imaging; format: in vivo, BALB/c nude mice; details: 2 and 4 h after injection, approx. 7.4 MBq/200 μL via tail vein, static 10-min PET, n = 3
Procedure: Human breast cancer cells (MDA-MB-231 cells from the Cell Bank of the Chinese Academy of Sciences) were cultured in high-glucose DMEM supplemented with 10% fetal bovine serum and 1% double antibiotic mixture (penicillin‒streptomycin mixture) at 37 °C in 5% CO2. Twenty-four four- to five-week-old female specific pathogen-free (SPF) BALB/c nude mice (Hangzhou Ziyuan Experimental Animal Technology Co., Ltd., China, license number: SCXK(Zhe) 2019–0004) were used to establish the MDA-MB-231 tumor model by subcutaneously inoculating 0.1 mL of cell suspension (50 µL of PBS + 50 µL of Matrigel) containing 1 × 10^6 MDA-MB-231 cells at the base of the right forelimb of each mouse. The animal studies were approved by the ethics committee of Qingdao University, and the management of the animals adhered to the animal ethics standards.
Six tumor-bearing nude mice were selected for imaging when the tumor diameter reached 0.8–1.0 cm. Mice were randomly divided into two groups: a YJL-4 group and a control group, with 3 mice per group; each group had two time points. Each tumor-bearing nude mouse was injected with approximately 7.4 MBq/200 μL of ^68Ga-YJL-4 or ^68Ga-kVar7 through the tail vein, and the mice were anesthetized with 2% isoflurane at 2 and 4 h after injection and imaged using static 10-min PET and moderate-resolution whole-body CT. […]

Q: What does the source list for `CC(C)C[C@H](NC(=O)[C@H](CC(=O)O)NC(=O)[C@H](CC(C)C)NC(=O)[C@H](CC(C)C)NC(=O)[C@H](CC(C)C)NC(=O)[C@@H](NC(=O)[C@H](CC(=O)O)NC(=O)[C@@H](NC(=O)[C@@H]1CCCN1C(=O)[C@H](Cc1ccccc1)NC(=O)[C@H](CC(C)C)NC(=O)[C@H](CC(C)C)NC(=O)[C@H](CC(=O)O)NC(=O)[C@H](C)NC(=O)[C@H](Cc1ccc(O)cc1)NC(=O)[C@H](CCCNC(=N)N)NC(=O)[C@H](C)NC(=O)[C@H](Cc1c[nH]c2ccccc12)NC(=O)[C@@H]1CCCN1C(=O)[C@H](CC(N)=O)NC(=O)[C@H](CCC(N)=O)NC(=O)[C@H](CC(=O)O)NC(=O)[C@H](CC(=O)O)NC(=O)[C@H](CS)NC(=O)[C@H](C)NC(=O)CCCCCNC(=S)Nc1ccc(CC2CN(CC(=O)O)CCN(CC(=O)O)CCN2CC(=O)O)cc1)[C@@H](C)O)[C@@H](C)O)C(N)=O` (stereo partly drawn) [^68Ga-YJL-4, metal not drawn] ({X1-Ahx}-ACDDQNPWARYADLLFPTDTLLLDL-NH2)?
A: Radiochemical purity after incubation in human serum [1]: ~95%; Radiochemical purity after incubation in mouse serum [2]: ~95%; fraction unbound at 30 min (Serum protein binding; mouse, serum): 0.678; fraction unbound at 120 min (Serum protein binding; mouse, serum): 0.685; tissue uptake at 1 h (In vivo biodistribution; Biodistribution in tumors): 5.94 ± 1.27 %ID/g; tissue uptake at 2 h (In vivo biodistribution; Biodistribution in tumors): 6.72 ± 1.69 %ID/g; tissue uptake at 4 h (In vivo biodistribution; Biodistribution in tumors): 4.54 ± 0.58 %ID/g; tissue uptake at 1 h (In vivo biodistribution; Distribution in the blood): 19.6 ± 3.92 %ID/g; tissue uptake at 2 h (In vivo biodistribution; Distribution in the blood): 8.23 ± 3.47 %ID/g; tissue uptake at 4 h (In vivo biodistribution; Distribution in the blood): 3.38 ± 1.91 %ID/g; tissue uptake at 1 h (In vivo biodistribution; Distribution in the liver): 20.5 ± 3.64 %ID/g; tissue uptake at 2 h (In vivo biodistribution; Distribution in the liver): 14.5 ± 3.98 %ID/g; tissue uptake at 4 h (In vivo biodistribution; Distribution in the liver): 10.2 ± 2.77 %ID/g; Visualization of tumors by PET [3]: clearly visualized

Q: Which results are given for `CC(C)C[C@H](NC(=O)[C@H](CCCCN)NC(=O)[C@H](CC(C)C)NC(=O)[C@H](CC(C)C)NC(=O)[C@H](CC(C)C)NC(=O)[C@@H](NC(=O)[C@H](CCCCN)NC(=O)[C@@H](NC(=O)[C@@H]1CCCN1C(=O)[C@H](Cc1ccccc1)NC(=O)[C@H](CC(C)C)NC(=O)[C@H](Cc1c[nH]c2ccccc12)NC(=O)[C@H](CCCCN)NC(=O)[C@H](CC(C)C)NC(=O)[C@H](Cc1ccc(O)cc1)NC(=O)[C@H](CCCNC(=N)N)NC(=O)[C@H](C)NC(=O)[C@H](Cc1c[nH]c2ccccc12)NC(=O)[C@@H]1CCCN1C(=O)[C@H](CC(N)=O)NC(=O)[C@H](CCC(N)=O)NC(=O)[C@H](CCC(=O)O)NC(=O)[C@H](CCC(=O)O)NC(=O)[C@H](CS)NC(=O)[C@H](C)NC(=O)CN1CCN(CC(=O)O)CCN(CC(=O)O)CC1)[C@@H](C)O)[C@@H](C)O)C(N)=O` [^68Ga-kVar7, metal not drawn, reference compound] ({NOTA}-ACEEQNPWARYLKWLFPTKTLLLKL-NH2; N-terminus assumed)?
A: Radiochemical purity after incubation in human serum ([1]; 200 µL labeled peptide (18.5 MBq) in 1.0 mL fresh human serum, 37 °C, 240 min): ~95%; Radiochemical purity after incubation in mouse serum ([2]; 200 µL labeled peptide (18.5 MBq) in 1.0 mL mouse serum, 37 °C, 240 min): ~95%; fraction unbound at 30 min (Serum protein binding; mouse serum, 37 °C, 30 min, 0.37 MBq, acetonitrile precipitation, gamma counter, mean ± SD, read-out: Serum protein binding rate (converted)): 0.723; Serum protein binding rate (Serum protein binding; mouse serum, 37 °C, 60 min, 0.37 MBq, acetonitrile precipitation, gamma counter, mean ± SD): 27.89 ± 2.02%; fraction unbound at 120 min (Serum protein binding; mouse serum, 37 °C, 120 min, 0.37 MBq, acetonitrile precipitation, gamma counter, mean ± SD, read-out: Serum protein binding rate (converted)): 0.75; Serum protein binding rate (Serum protein binding; mouse serum, 37 °C, 240 min, 0.37 MBq, acetonitrile precipitation, gamma counter, mean ± SD): 27.54 ± 0.86%; tissue uptake at 1 h (In vivo biodistribution; 1 h after injection, 1.85 MBq/200 μL via tail vein, mean ± SD, n = 3, read-out: Distribution in the blood): 20.6 ± 4.73 %ID/g; tissue uptake at 1 h (In vivo biodistribution; 1 h after injection, 1.85 MBq/200 μL via tail vein, mean ± SD, n = 3, read-out: Distribution in the liver): 21.3 ± 2.93 %ID/g; tissue uptake at 2 h (In vivo biodistribution; 2 h after injection, 1.85 MBq/200 μL via tail vein, mean ± SD, n = 3, read-out: Distribution in the blood): 9.88 ± 2.71 %ID/g; tissue uptake at 2 h (In vivo biodistribution; 2 h after injection, 1.85 MBq/200 μL via tail vein, mean ± SD, n = 3, read-out: Distribution in the liver): 14.8 ± 3.87 %ID/g; tissue uptake at 4 h (In vivo biodistribution; 4 h after injection, 1.85 MBq/200 μL via tail vein, mean ± SD, n = 3, read-out: Distribution in the blood): 3.17 ± 1.6 %ID/g; tissue uptake at 4 h (In vivo biodistribution; 4 h after injection, 1.85 MBq/200 μL via tail vein, mean ± SD, n = 3, read-out: Distribution in the liver): 11 ± 2.77 %ID/g; Visualization of tumors by PET [3]: not visualized
